Laboratory results as given in the supplement of paper PMC11316812.
± gives the standard deviation of the averaged measurements.

Key:
hTERT-HMEC = assay: percentage of EdU-negative (G0-arrested) nuclei per well, 72 h; higher = more G0 arrest; conditions: reference: sequence is the full UniProt precursor, the tested protein was the secreted form or ectodomain
MCF7 = assay: as above; conditions: reference: sequence is the full UniProt precursor, the tested protein was the secreted form or ectodomain
[1] = protein concentration 0.0257143 µM
[2] = protein concentration 0.257143 µM
[3] = protein concentration 0.0225 µM
[4] = protein concentration 0.0065 µM
[5] = protein concentration 0.0185 µM
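Further: secreted proteins added to cultured cells, EdU pulse at the end, nuclei found by Hoechst imaging, EdU status from nuclear versus surrounding ring intensity ratio, PBS as neutral control.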

Substance | percentage of EdU-negative (hTERT-HMEC; [3]) [%] | percentage of EdU-negative (hTERT-HMEC; protein concentration 0.225 µM) [%] | percentage of EdU-negative (MCF7; [3]) [%] | percentage of EdU-negative (MCF7; protein concentration 0.225 µM) [%] | other results
MGRDLRPGSRVLLLLLLLLLVYLTQPGNGNEGSVTGSCYCGKRISSDSPPSVQFMNRLRKHLRAYHRCLYYTRFQLLSWSVCGGNKDPWVQELMSCLDLKECGHAYSGIVAHQKHLLPTSPPISQASEGASSDIHTPAQMLLSTLQSTQRPTLPVGSLSSDKELTRPNETTIHTAGHSLAAGPEAGENQKQPEKNAGPTARTSATVPVLCLLAIIFILTAALSYVLCKRRRGQSPQSSPDLPVHYIPVAPDSNT [Q9H2A7] | – | – | – | – | percentage of EdU-negative (hTERT-HMEC; [1]): 4.5 ± 0.52%; percentage of EdU-negative (hTERT-HMEC; [2]): 4.18 ± 0.16%; percentage of EdU-negative (MCF7; [1]): 25.9 ± 0.7%; percentage of EdU-negative (MCF7; [2]): 25.9 ± 2.8%
MKWMVVVLVCLQLLEAAVVKVPLKKFKSIRETMKEKGLLGEFLRTHKYDPAWKYRFGDLSVTYEPMAYMDAAYFGEISIGTPPQNFLVLFDTGSSNLWVPSVYCQSQACTSHSRFNPSESSTYSTNGQTFSLQYGSGSLTGFFGYDTLTVQSIQVPNQEFGLSENEPGTNFVYAQFDGIMGLAYPALSVDEATTAMQGMVQEGALTSPVFSVYLSNQQGSSGGAVVFGGVDSSLYTGQIYWAPVTQELYWQIGIEEFLIGGQASGWCSEGCQAIVDTGTSLLTVPQQYMSALLQATGAQEDEYGQFLVNCNSIQNLPSLTFIINGVEFPLPPSSYILSNNGYCTVGVEPTYLSSQNGQPLWILGDVFLRSYYSVYDLGNNRVGFATAA | 4.89 ± 0.11 | 6.1 ± 0.73 | 24.38 ± 0.12 | 23.4 ± 0.35 | –
Q9Y6N7 | 5.33 ± 0.86 | 5.81 ± 0.72 | 27 ± 0.88 | 25.6 ± 1.4 | –
MARGSAVAWAALGPLLWGCALGLQGGMLYPQESPSRECKELDGLWSFRADFSDNRRRGFEEQWYRRPLWESGPTVDMPVPSSFNDISQDWRLRHFVGWVWYEREVILPERWTQDLRTRVVLRIGSAHSYAIVWVNGVDTLEHEGGYLPFEADISNLVQVGPLPSRLRITIAINNTLTPTTLPPGTIQYLTDTSKYPKGYFVQNTYFDFFNYAGLQRSVLLYTTPTTYIDDITVTTSVEQDSGLVNYQISVKGSNLFKLEVRLLDAENKVVANGTGTQGQLKVPGVSLWWPYLMHERPAYLYSLEVQLTAQTSLGPVSDFYTLPVGIRTVAVTKSQFLINGKPFYFHGVNKHEDADIRGKGFDWPLLVKDFNLLRWLGANAFRTSHYPYAEEVMQMCDRYGIVVIDECPGVGLALPQFFNNVSLHHHMQVMEEVVRRDKNHPAVVMWSVANEPASHLESAGYYLKMVIAHTKSLDPSRPVTFVSNSNYAADKGAPYVDVICLNSYYSWYHDYGHLELIQLQLATQFENWYKKYQKPIIQSEYGAETIAGFHQDPPLMFTEEYQKSLLEQYHLGLDQKRRKYVVGELIWNFADFMTEQSPTRVLGNKKGIFTRQRQPKSAAFLLRERYWKIANETRYPHSVAKSQCLENSLFT | 5.26 ± 0.26 | 5.74 ± 0.95 | 24.2 ± 0.95 | 23.4 ± 1.8 | –
MEAVAVAAAVGVLLLAGAGGAAGDEAREAAAVRALVARLLGPGPAADFSVSVERALAAKPGLDTYSLGGGGAARVRVRGSTGVAAAAGLHRYLRDFCGCHVAWSGSQLRLPRPLPAVPGELTEATPNRYRYYQNVCTQSYSFVWWDWARWEREIDWMALNGINLALAWSGQEAIWQRVYLALGLTQAEINEFFTGPAFLAWGRMGNLHTWDGPLPPSWHIKQLYLQHRVLDQMRSFGMTPVLPAFAGHVPEAVTRVFPQVNVTKMGSWGHFNCSYSCSFLLAPEDPIFPIIGSLFLRELIKEFGTDHIYGADTFNEMQPPSSEPSYLAAATTAVYEAMTAVDTEAVWLLQGWLFQHQPQFWGPAQIRAVLGAVPRGRLLVLDLFAESQPVYTRTASFQGQPFIWCMLHNFGGNHGLFGALEAVNGGPEAARLFPNSTMVGTGMAPEGISQNEVVYSLMAELGWRKDPVPDLAAWVTSFAARRYGVSHPDAGAAWRLLLRSVYNCSGEACRGHNRSPLVRRPSLQMNTSIWYNRSDVFEAWRLLLTSAPSLATSPAFRYDLLDLTRQAVQELVSLYYEEARSAYLSKELASLLRAGGVLAYELLPALDEVLASDSRFLLGSWLEQARAAAVSEAEADFYEQNSRYQLTLWGPEGNILDYANKQLAGLVANYYTPRWRLFLEALVDSVAQGIPFQQHQFDKNVFQLEQAFVLSKQRYPSQPRGDTVDLAKKIFLKYYPRWVAGSW | – | – | – | – | percentage of EdU-negative (hTERT-HMEC; [4]): 4.39 ± 0.1%; percentage of EdU-negative (hTERT-HMEC; protein concentration 0.065 µM): 5.55 ± 0.91%; percentage of EdU-negative (MCF7; [4]): 24.9 ± 1.1%; percentage of EdU-negative (MCF7; protein concentration 0.065 µM): 26 ± 2.8%
MAREMTILGSAVLTLLLAGYLAQQYLPLPTPKVIGIDLGTTYCSVGVFFPGTGKVKVIPDENGHISIPSMVSFTDNDVYVGYESVELADSNPQNTIYDAKRFIGKIFTAEELEAEIGRYPFKVLNKNGMVEFSVTSNETITVSPEYVGSRLLLKLKEMAEAYLGMPVANAVISVPAEFDLKQRNSTIEAANLAGLKILRVINEPTAAAMAYGLHKADVFHVLVIDLGGGTLDVSLLNKQGGMFLTRAMSGNNKLGGQDFNQRLLQYLYKQIYQTYGFVPSRKEEIHRLRQAVEMVKLNLTLHQSAQLSVLLTVEEQDRKEPHSSDTELPKDKLSSADDHRVNSGFGRGLSDKKSGESQVLFETEISRKLFDTLNEDLFQKILVPIQQVLKEGHLEKTEIDEVVLVGGSTRIPRIRQVIQEFFGKDPNTSVDPDLAVVTGVAIQAGIDGGSWPLQVSALEIPNKHLQKTNFN | – | – | – | – | percentage of EdU-negative (hTERT-HMEC; [5]): 4.53 ± 0.31%; percentage of EdU-negative (hTERT-HMEC; protein concentration 0.185 µM): 5.54 ± 0.38%; percentage of EdU-negative (MCF7; [5]): 25 ± 2%; percentage of EdU-negative (MCF7; protein concentration 0.185 µM): 25.9 ± 0.78%
